Reference: patent US20030162228A1
Where no end group is shown, it is not given here.

T1: TAK1 expressed from yeast 2-hybrid expression vector pBTMHu11F (Homo sapiens (Human)) (UniProt O43318)
T1 sequence: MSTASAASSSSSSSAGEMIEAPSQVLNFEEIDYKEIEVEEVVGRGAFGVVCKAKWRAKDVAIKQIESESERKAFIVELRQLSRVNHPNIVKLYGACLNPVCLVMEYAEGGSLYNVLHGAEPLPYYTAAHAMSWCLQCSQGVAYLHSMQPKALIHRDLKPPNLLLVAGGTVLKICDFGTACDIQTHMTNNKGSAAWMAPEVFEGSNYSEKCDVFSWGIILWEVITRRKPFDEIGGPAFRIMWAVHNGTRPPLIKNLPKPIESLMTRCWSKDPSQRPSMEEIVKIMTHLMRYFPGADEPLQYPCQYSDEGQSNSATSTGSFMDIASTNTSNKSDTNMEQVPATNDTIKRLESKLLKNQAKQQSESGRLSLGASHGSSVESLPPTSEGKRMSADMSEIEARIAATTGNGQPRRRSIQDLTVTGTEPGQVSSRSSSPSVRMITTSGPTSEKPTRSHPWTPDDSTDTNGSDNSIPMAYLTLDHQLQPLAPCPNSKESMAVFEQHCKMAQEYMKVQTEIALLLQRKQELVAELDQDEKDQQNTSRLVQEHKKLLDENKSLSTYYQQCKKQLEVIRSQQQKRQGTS


Each binder was assayed against T1, TAK1 expressed from yeast 2-hybrid expression vector pBTMHu11F (Homo sapiens (Human)) (assay: cell-based or functional assay).
VDFAEFYRLWSVDHGEQSVVTAP (peptide, not shown: large carriers, also: fusion with GAL4 transcription activation domain) [TAB1C23, fusion with the GAL4 transcription activated domain (pGAD-TAB1C23)] showed a β-galactosidase activity of yeast L40 (yeast 2-hybrid), ratio based on TAB1C68 (ratio to TAB1C68) of 0.05.
In the case of AEFYRLWSVDHGEQSVVTAP (peptide, not shown: large carriers, also: fusion with GAL4 transcription activation domain) [TAB1C20, fusion with the GAL4 transcription activated domain (pGAD-TAB1C20)], the β-galactosidase activity of yeast L40 (yeast 2-hybrid), ratio based on TAB1C68 (ratio to TAB1C68) is reported as 0.03.
In the case of FAEFYRLWSVDHGEQSVVTAP (peptide, not shown: large carriers, also: fusion with GAL4 transcription activation domain) [TAB1C21, fusion with the GAL4 transcription activated domain (pGAD-TAB1C21)], the β-galactosidase activity of yeast L40 (yeast 2-hybrid), ratio based on TAB1C68 (ratio to TAB1C68) is reported as 0.03.
Binder DFAEFYRLWSVDHGEQSVVTAP (peptide, not shown: large carriers, also: fusion with GAL4 transcription activation domain) [TAB1C22, fusion with the GAL4 transcription activated domain (pGAD-TAB1C22)] has a β-galactosidase activity of yeast L40 (yeast 2-hybrid), ratio based on TAB1C68 (ratio to TAB1C68) of 0.03.
YVDFAEFYRLWSVDHGEQSVVTAP (peptide, not shown: large carriers, also: fusion with GAL4 transcription activation domain) [TAB1C24, fusion with the GAL4 transcription activated domain (pGAD-TAB1C24)] gave a β-galactosidase activity of yeast L40 (yeast 2-hybrid), ratio based on TAB1C68 (ratio to TAB1C68) of 0.35.
